{
  "source": "a protein production outcome set (Wang et al. 2014)",
  "assay": "label from the status in PepcDB records",
  "data": [
    {"sequence": "MRAGIVGSGIMGRLLAFVLHNAGWQVSLFDRSNESMNCSTAAAGLLTPFSELDKSILLISTLGQESIKNCWPRIIEDLPESVYFQQSGSLVLCHPGDQAEWIHFSRRILSQLNPSNSVFQKLSHENLIALEPELTKFETAYYFPNEAHIDCQTLMLSLKNYLDSVCIPHITNTPVLSLKPGEINTKEQRYHFDVVFDCRGLGAQNVFSDLRGIRGELIWLHAPGVQLHRPIRLLHPRYSLYLVPRPGNFYLIGASEIEAEDFSPVSVRTALELLTAVYYLHRNFDEARIIKTVTHCRPTLVNHLPRIKFADGLIAVNGLYRHGYLIAPALAEEILRGVTSNFRHLNYPELWENYCDLEHHHHHH", "values": [
      {"measurement": "protein production", "value": "failed"}
    ]},
    {"sequence": "MEDLLVVGQIINTHGLRGEMKVMPLTEDMRRFDYLEYVILKGKKVKVEGVKYFKDKVILKLEGINSIEEAEKLKRTYLEIEREDAIELEEDEYFIVDLVGCTVVDTEGFEYGKIKDVIQTPSNDVYWVQGKKEVLVPVLKDIVLDINMDEKLITIRPSGEWQYEDLEHHHHHH", "values": [
      {"measurement": "protein production", "value": "failed"}
    ]},
    {"sequence": "MVDHGMFYSSRMSTLSSNGRGDAYTCKKALHLTLNKPNVVKACSDLKKNEHQISRDFAAETKKKTEFLVLKKNNDERSKTGEVTREKKQSALPLKLSKTPRSGTGEIKQTLKKRGLSKSVPETSRLIKLKKQPPVKVSDKPKSCPVLTKNDTDTLELFEIAKKSADFANAKGILASEVETSMCVDTLTLLLEFPISARDMETRKLMVRLEHLTKHKNRKICNSASKLLQCWRESIREQQLRESRKTQG", "values": [
      {"measurement": "protein production", "value": "failed"}
    ]},
    {"sequence": "MDNITFPSQGSLSSSNQTFDSQSAARNSNAPPEYVNQGLLLWNQTRERWVGKDKPNNPVDHNQGAKLNWNTATYDSLLGSNKLFPQPIPLTEMVDFLVDIWEQEGLYD", "values": [
      {"measurement": "protein production", "value": "failed"}
    ]},
    {"sequence": "MVGLGTVINVILIIVGGFVGLFLKNFLKESLQKSLMQAMGVAVLFISISGVLEKMMLVEKSHLISNHTNMMIITLALGTVLGELLSLDSYIDKFGNYLKQKTGSGNDIKFVEAFVTSTCTVCIGAMAVVGSIQDGIAADHSILFAKGMLDMIIIAIMTVSLGKGALFSALPVALLQGSLTIVAFFMGSLLNPSSLDYLNLVGNMLIFCVGVNLLFNLNIKVINMLPAIILAILWGSFI", "values": [
      {"measurement": "protein production", "value": "failed"}
    ]},
    {"sequence": "MNEQQRLASQQVNSSTKKEEKDYSKYFESVYQPPSLKEAKKRGKEEVKIERDFGLPEEFRNFGTGRKFYIRTYGCQMNEHDTEVMAGIFTALGYEPTFSTEDADVVLLNTCAIRENAENKVFGELGHLKALKRRNPDLLIGVCGCMSQEESVVNKIMQKNQHVDMVFGTHNIHRLPYILKDAMFSKETVVEVWSKEGDVIENLPKVRRGDIKAWVNIMYGCDKFCTYCIVPYTRGKERSRRPEDIIQEIRHLAANGYKEITLLGQNVNAYGKDFEDIEYGLGDLMDELRKVDIARIRFTTSHPRDFDDHLIEVLGKGGNLVEHIHLPVQSGSTEMLKIMARKYSREHYLELVRKIKEAIPNAVLTTDIIVGFPNETDEQFEETMSLYREVGFDTAFTFIYSPREGTPAAKMKDNVPMEVKKERLQRLNALVNKLAIEKNDRYKGQIVEVLVDGESKNNPEVLAGYTRTNKLVNFVAPKSLIGQLVKVKVTDAKTWSLNGELVEEPIEVELEHHHHHH", "values": [
      {"measurement": "protein production", "value": "failed"}
    ]},
    {"sequence": "MYQAVVFFDLDGTLMQDDKTVAASSVRAIQQLRANHVLPVIATGRNVFEVQDVMTTTGIDSIVSANGSYVAYQGQFLSAHELDKELLTDITHFANRQQNALAYYNNAGFALSHRDALTTSNYRALRQTARVAPHFYEHQHINFLLTFDPLNAAQYRQRYRGRLHFVRNNPRALDTMQWGVSKAVGIQDILTKAHLTKVPTYAFGDQLNDIEMFRMIQTPIAMGNGHPQVKQLARYVTADNMHGGIAQGLQHFDLI", "values": [
      {"measurement": "protein production", "value": "failed"}
    ]},
    {"sequence": "MHGAEHLLEIFYLLLAAQVMAFIFKRLNQPVVIGEVLAGVLVGPALLGLVHEGEILEFLAELGAVFLLFMVGLETRLKDILAVGKEAFLVAVLGVALPFLGGYLYGLEIGFETLPALFLGTALVATSVGITARVLQELGVLSRPYSRIILGAAVIDDVLGLIVLAVVNGVAETGQVEVGAITRLIVLSVVFVGLAVFLSTLIARLPLERLPVGSPLGFALALGVGMAALAASIGLAPIVGAFLGGMLLSEVREKYRLEEPIFAIESFLAPIFFAMVGVRLELSALASPVVLVAGTVVTVIAILGKVLGGFLGALTQGVRSALTVGVGMAPRGEVGLIVAALGLKAGAVNEEEYAIVLFMVVFTTLFAPFALKPLIAWTERERAAKE", "values": [
      {"measurement": "protein production", "value": "failed"}
    ]},
    {"sequence": "MSEFIMNNLEQTARRWLEERGVTVEKIAELVYYLQSKYHPDLTMEECIENVNRVISKREVQNAILTGIQLDKLAEDGRLDEPLQSIIRRDEGLYGVDEILALSIVNVYGSIGFTNYGYIDKQKPGILQYLNDKSTGKCNTFLDDIVGAIAAAASSRLAHRAANAE", "values": [
      {"measurement": "protein production", "value": "not failed"}
    ]},
    {"sequence": "SAQSLSSEPDILFLDGWQLRYQAFAARADDPRPPVLLLGGAFQSFRSFTGEVSELLAEHPVILLDLPSQGGNLQLAAELSLEDLADLIAAFAEQLGLPPLMPIGLSYGSALAALFAARHPRRCARLLLAGITAFGRPGARLLLEEALARLDEGDQSAFAHGVLTGLINPLQLERTGVSPVFRKAMLRQLQRLTAAEIERYRQNSRRLLAFGGFERHPTCPTLVLAGEYDHFTQPWEHAVFAHACGNAEFALIHDADHLAQFERREACARLYGPFLRG", "values": [
      {"measurement": "protein production", "value": "failed"}
    ]},
    {"sequence": "MLARVLILLMFSLCAWPARAHALTIYTEEWPPITFQRNGIADGMAVEVVREIQGRIHDNSPIEVVPWARGYKDLLTTPGVMLFTVGRSEAREKQMTLLGPIAVSQTVLLARKGEAAKLLALGAGIYQRPVGAYRGSIFADAASAAGFVEVDLAPTPQLTAQKMLMGRYDMWVEGGFVVASVLKDIHQPANAVEVVRVLESLELYLAFSRGTSAEEVKRWQDGFAAIKKDGTFKRIYNKWLPRDAPPMEMKLLGVPPGTAR", "values": [
      {"measurement": "protein production", "value": "failed"}
    ]},
    {"sequence": "MTIQQWLFSFKGRIGRRDFWIWIGLWFAGMLVLFSLAGKNLLDIQTAAFCLVCLLWPTAAVTVKRLHDRGRSGAWAFLMIVAWMLLAGNWAILPGVWQWAVGRFVPTLILVMMLIDLGAFVGTQGENKYGKDTQDVKYKADNKSSN", "values": [
      {"measurement": "protein production", "value": "failed"}
    ]},
    {"sequence": "MLETAALAAGMSWASGIRLYLAVLTAGVLARLGWLDLPPGLHVLESWWVIGIAGAMAAAEFVADKVPGFDTVWDGIQTFIRIPAGAILAAAAFGQLDPQWMVAAGLIGGTLAGTAHATKAGTRALINVSPEPFSNWVASFTEDITTAGGLLLAFFLPVVFLILLVLFLITAAWLLPKLWRGVRRLHAGLRGNADNQRP", "values": [
      {"measurement": "protein production", "value": "failed"}
    ]},
    {"sequence": "MLAGGSLPSLAPDLVRDLIATAADISLLVSQEGVVREVMANPHHPSFGQLSEWEGRPLEEVLTAESVAKFRLRSEGLEPGRGSVAVELNHIDPRSFEFPIRYILHRLPADRSILMLGRDLRPIAEVQQQLVAAQLAMERDYETQREMETRYRVVLDVSRDPMVLVSMSTGRIVDLNSAAGLLLGGVRQDLLGAAIAQEFEGRRRGEFMETMTNLAATESAAPVEVLARRSQKRLLVVPRVFRAAGERLLLCQIDPADATQPVGDELSENLARLYHEGVDGIVFSDADGTIRGANEAFLNMTDSSSLAAIRGRSIADFLARGSVDLRVLIDSVRRTGQLRLYATRLTTDFAGQIAAEISATWLDDRERPLLVLVVRDTSRADTMRRPVPATGVIDEPARNVMELVGNSTLKDIVAETTDVVEKMCIETALELTRNNRVAAAEMLSLSRQSLYVKLRKFGLLNKDE", "values": [
      {"measurement": "protein production", "value": "failed"}
    ]},
    {"sequence": "MSEVTRSLLQRWGASLRRGADFDSWGQLVEAIDEYQILARHLQKEAQAQHNNSEFTEEQKKTIGKIATCLELRSAALQSTQSQEEFKLEDLKKLEPILKNILTYNKEFPFDVQPI", "values": [
      {"measurement": "protein production", "value": "not failed"}
    ]},
    {"sequence": "MLLLHNARILDLTDGSTGEPTDVLLSDRVLALGPEAQQQAHSARVRSIDLGGRLLMPGLWDEHVHVGQWALASRRFLVSQTASCETALEEVATHVKRREGSDEPILQGFGFRPSLWGSNPNARQLDAVTGDRAVILVSADLHSSWCNTAAMRKLGIEGDGFLREQTSFDVQTQLSQVNPHVLDGWVGSCSTAAARLGITGIRDMEFSTDVETWLQRKADGRCPLRVEVSVYPERLDEAIAQVLATGQAPATDKPGPSRVAMGPLKVIVDGSMSTRTAWCMDSYPAGAGPDGAGIDSVTPEDLVDLMNRAKTGNLQCAAHAIGDRAAKEVLNAFEVTGISGSIEHAQVLTDADVRRFAALGVRASVQPLHLVDDRDATDVMWSDRADRCFRFADMVRAGTELALGSDAPVSPVDPWGAIRVAVERTGDRRPSWHPEQALTLSQAITASTRHVTQVVTGGPGDVIAVAHNPFDLSGNALAGITSDLTVVGGEVTAAAL", "values": [
      {"measurement": "protein production", "value": "failed"}
    ]},
    {"sequence": "MGGSFGKKGASSATAAQVPLATETTPGLMSPSEKLKLSTLTTSIATSDFYASYDFMMHSIGLTSANNISLLSTGNISLQNILSEGNHFGVQPIVSSTTANASFLAGMLMAIFPKESELEVTVYFKTPSAFNPAQLTVIGSTSIGLGISDRSGLIIENGNAFGGIVKASAATETGSTYALSTSTWYICKFKMLTDDRFKVTLYSDSGTQLYSYTSTAAMFRADNATAHIGFKTQCKTATAGISLISIDLIEFKAKVSATRAKV", "values": [
      {"measurement": "protein production", "value": "not failed"}
    ]},
    {"sequence": "NILSLLLHPRLGAVIQQMLEMPGHAWTVESLASIAHMSRASFAQLFRDVSGTTPLAVLTKLRLQIAAQMFSRETLPVVVIAESVGYASESSFHKAFVREFGCTPGEYRERVRQLA", "values": [
      {"measurement": "protein production", "value": "not failed"}
    ]},
    {"sequence": "IHYAGKILQERLVNPPSLMELAREIGINDHKLKVGFRQVFKTTVFGYLHDQRIERSRQLLESGEMTVTGAASAVGFANRGHFAAAFRRKFGINPSLYARQRKL", "values": [
      {"measurement": "protein production", "value": "failed"}
    ]},
    {"sequence": "MTEQSAHEKYEFKKKLEGLRDKKGRSTELISLYIPPDKQIFDVTNQLKDEHGQAANIKSKLTRTNVQGAIESLLSRLRYLDKVPENGIVYFTGAVDIGANKTSMESEVIVPPDPITVYKYHCDSSFYLEPLEDMLKDKNTYGLLVLDRREATIGLLVGKRIQPFRNLTSTVPGKQRKGGQSAHRFQQLRLIAIHDFYKRIGDAASEVFMAVDHKDLKGVLIGGPSPTKEEFHAGEFLHHELMKKILGLFDTAYTDESGLSELVNAAGEKLQDLELMGQKNAVRDFFKELIADSGKVAYGESQVRANLEINSVDVLLLSEDLRAERVTTKCSVCGYENKWTRRWKPGEPAPAAGNCPKCGSSLEVTDVTDIVDEFSELADKSNAKVVFVSTDFDEGSQLMNAFGGIAAILRYNTGV", "values": [
      {"measurement": "protein production", "value": "failed"}
    ]},
    {"sequence": "MTELNFHLLPIISDRFTTTTTTSPSFSSHSSSSSSLLSFTKRRRKHQPLVSSIRMEQSRSRNRKDKVVVILGATGAGKSRLSVDLATRFPSEIINSDKIQVYEGLEITTNQITLQDRRGVPHHLLGVINPEHGELTAGEFRSAASNVVKEITSRQKVPIIAGGSNSFVHALLAQRFDPKFDPFSSGSCLISSDLRYECCFIWVDVSETVLYEYLLRRVDEMMDSGMFEELSRFYDPVKSGLETRFGIRKAIGVPEFDGYFKEYPPEKKMIKWDALRKAAYDKAVDDIKRNTWTLAKRQVKKIEMLKDAGWEIERVDATASFKAVMMKSSSEKKWRENWEEQVLEPSVKIVKRHLVQN", "values": [
      {"measurement": "protein production", "value": "failed"}
    ]},
    {"sequence": "LESKIVDISTRFINTPIDDLDREIEAALQAIGAFVDADRSYVFLFDDEAATMSNTHEWRTEATASTQSRLQNIPYAETPWFMARMRRREGPLRVPRLEDLPPDAAGLRQRLEAGNVQSLLVLPMLNDQDLIGFVGFDAVRQQRDWDADTVMLLRVLSDAISNALQRKTAEKEMLAAKEEAEDANRMKS", "values": [
      {"measurement": "protein production", "value": "failed"}
    ]},
    {"sequence": "MIGLNTAAIYVLQTLGSLYLLIILLRFVLQLVRANFYNPLCQFIVRATQPLLKPLRRIIPSLFGLDMSSLVLAIIVQMILMALTLLLMFGTTGDPLHLLLWSIIGVTALFLKIFFFALIISVILSWVAPGSHNPGAELVNQICEPALAPFRKIVPNLGGLDISPILAFLVLKLLDMLVINNLAAMSNMPDVLRLLM", "values": [
      {"measurement": "protein production", "value": "failed"}
    ]}
  ]
}
